From article PMC11043367

B1: human MYADM (myeloid-associated differentiation marker), HA-tagged, Q96S97 D276E; V277H; S278N (protein)
chain: MPVTVTRTTITTTTTSSSGLGSPMIVGSPRALTQPLGLLRLLQLVSTCVAFSLVASVGAWTGSMGNWSMFTWCFCFSVTLIILIVELCGLQARFPLSWRNFPITFACYAALFCLSASIIYPTTYVQFLSHGRSRDHAIAATFFSCIACVAYATEVAWTRARPGEITGYMATVPGLLKVLETFVACIIFAFISDPNLYQHQPALEWCVAVYAICFILAAIAILLNLGECTNVLPIPFPSFLSGLALLSVLLYATALVLWPLYQFDEKYGGQPRRSREHNCSRSHAYYVCAWDRRLAVAILTAINLLAYVADLVHSAHLVFVKV

Legend:
[1] = target: human parechovirus 1 (PeV-A1) particles, Harris strain; assay: co-immunoprecipitation with anti-HA beads, RT-qPCR of viral RNA; details: IP, read off a plot
[2] = target: T1, Flag-tagged PeV-A1 virus particles; assay: pH-dependent virus particle binding assay (anti-HA immunoprecipitation), RT-qPCR of viral RNA; details: chain shown with the change, read off a plot
T1 chain 1: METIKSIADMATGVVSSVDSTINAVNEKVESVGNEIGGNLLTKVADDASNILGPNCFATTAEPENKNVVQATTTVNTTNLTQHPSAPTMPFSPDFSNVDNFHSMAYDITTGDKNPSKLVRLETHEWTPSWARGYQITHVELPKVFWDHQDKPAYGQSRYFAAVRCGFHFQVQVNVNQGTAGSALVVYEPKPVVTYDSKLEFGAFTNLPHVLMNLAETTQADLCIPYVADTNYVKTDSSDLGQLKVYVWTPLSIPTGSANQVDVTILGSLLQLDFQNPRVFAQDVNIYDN
T1 chain 2: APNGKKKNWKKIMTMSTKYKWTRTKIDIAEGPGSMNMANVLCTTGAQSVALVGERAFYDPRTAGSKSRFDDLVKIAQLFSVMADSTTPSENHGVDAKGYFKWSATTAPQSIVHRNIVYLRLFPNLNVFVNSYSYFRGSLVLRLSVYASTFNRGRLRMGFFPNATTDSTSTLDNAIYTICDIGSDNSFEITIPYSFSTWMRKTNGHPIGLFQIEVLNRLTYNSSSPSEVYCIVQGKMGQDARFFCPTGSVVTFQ
T1 chain 3: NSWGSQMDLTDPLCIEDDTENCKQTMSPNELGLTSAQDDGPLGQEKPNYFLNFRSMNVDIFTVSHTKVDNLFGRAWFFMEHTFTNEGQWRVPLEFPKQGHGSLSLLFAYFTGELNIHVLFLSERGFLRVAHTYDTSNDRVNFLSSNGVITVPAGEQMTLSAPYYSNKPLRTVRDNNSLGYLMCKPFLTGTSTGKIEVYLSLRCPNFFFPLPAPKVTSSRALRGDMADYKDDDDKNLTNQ

Molecule	response (relative to Vero) ([1]; 0 min after infection, parent: est. 25)	response (relative to Vero) ([1]; 15 min after infection, 37 °C, parent: est. 52)	response (relative to Vero) ([1]; 30 min after infection, 37 °C, parent: est. 60)	response (relative to Vero) ([2]; virus particle IP buffer pH 5.5, parent: est. 3.0)	response (relative to Vero) ([2]; virus particle IP buffer pH 6.0, parent: est. 6.2)	response (relative to Vero) ([2]; virus particle IP buffer pH 6.5, parent: est. 5.3)	response (relative to Vero) ([2]; virus particle IP buffer pH 7.4, parent: est. 1.1)
human MYADM (myeloid-associated differentiation marker), HA-tagged (from UniProt Q96S97) D276E; V277H; S278N	5	1.5	5	–	–	–	–
B1	–	–	–	1	1	1	1.1
